Results: patent publication US20230331803A1, “CO-AGONISTS OF THE GLP-1 AND AMYLIN RECEPTORS” (priority 2020, published 2023)
Where two headings read alike, the source gives them in different places. Starred links: 1 amine or outer side, 2 acyl side, 3 side chain; linkers in the order of their positions; H or OH if unused. Non-standard residues stand in square brackets, D forms with d. Groups on a side chain read outwards from the residue. *: point of attachment. C18 diacid = O=C(O)CCCCCCCCCCCCCCCCC(=O)*; γGlu = O=C(O)[C@H](CCC(=O)[*:2])N[*:1]; AEEA = NCCOCCOCC(=O)O; Aib = CC(C)(N)C(=O)O

T1: human amylin receptor (hAmyR3) (Homo sapiens, UniProt O60896+P30988)
T1 construct: host or cells: BHK cells (Hollex-1 line: human calcitonin receptor (a) + CRE-Luc), further transfected with human RAMP3
T1 sequence (O60896 whole entry, looked up): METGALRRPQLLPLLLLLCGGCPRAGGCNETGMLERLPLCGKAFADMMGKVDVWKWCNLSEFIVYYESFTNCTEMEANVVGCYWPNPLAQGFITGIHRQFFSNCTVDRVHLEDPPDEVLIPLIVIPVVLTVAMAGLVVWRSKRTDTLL
T1 sequence (P30988 whole entry, looked up): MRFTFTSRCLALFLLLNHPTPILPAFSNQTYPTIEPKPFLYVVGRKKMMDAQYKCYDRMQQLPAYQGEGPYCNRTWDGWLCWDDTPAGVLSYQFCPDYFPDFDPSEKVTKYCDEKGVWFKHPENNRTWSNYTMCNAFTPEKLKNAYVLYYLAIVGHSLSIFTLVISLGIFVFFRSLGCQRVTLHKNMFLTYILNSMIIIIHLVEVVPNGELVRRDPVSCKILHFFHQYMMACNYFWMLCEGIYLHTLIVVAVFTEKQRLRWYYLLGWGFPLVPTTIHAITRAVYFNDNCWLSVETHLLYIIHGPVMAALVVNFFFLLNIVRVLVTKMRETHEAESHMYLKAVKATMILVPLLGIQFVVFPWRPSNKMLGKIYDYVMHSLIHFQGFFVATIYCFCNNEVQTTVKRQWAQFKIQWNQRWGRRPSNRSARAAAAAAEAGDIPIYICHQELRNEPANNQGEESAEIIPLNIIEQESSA

B1: H-Aib-EGTFTSDVSSYLEGQAA-K([2-[2-[2-[[2-[2-[2-[[(4S)-4-Carboxy-4-(17-Carboxyheptadecanoylamino)Butanoyl]Amino]Ethoxy]Ethoxy]Acetyl]Amino]Ethoxy]Ethoxy]Acetyl])-EFIAWLVRGRGGQEPGQEP-K([2-[2-[2-[[2-[2-[2- … (peptide)
peptide: H[Aib]EGTFTSDVSSYLEGQAAK([AEEA-AEEA-γGlu-C18 diacid])EFIAWLVRGRGGQEPGQEPK([AEEA-AEEA-γGlu-C18 diacid])CNTATCATQRLAEFLRHSSNNFGPILPPTNVGSNTP-NH2
modifications: ends and bridges not checked

Tests used:
[1] = endogenous hormone; cited from earlier work
[2] = measured in humans (Meier et al., Diabetes, 2004); cited from earlier work
[3] = target: T1, human amylin receptor (hAmyR3); experiment: Human amylin receptor in vitro potency assay (CRE-luciferase reporter, BHK cells); assay type: cell-based; conditions: Tables 4a-4c;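 note: BHK cells expressing human calcitonin receptor plus RAMP3 (amylin-3 receptor) with a CRE-luciferase reporter, agonist activity read as luminescence from cAMP-driven transcription, 7-point serial dilutions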

Molecule	half-life [1] [min]	half-life [2] [min]	Ability to agonise the amylin receptor, in words [3]
human amylin (KCNTATCATQRLANFLVHSSNNFGAILSSTNVGSNTY; Islet amyloid polypeptide; UniProt P10997 34-70, looked up) [37-amino acid long polypeptide hormone co-secreted with insulin from the pancreatic beta-cell]	15 to 20	15 to 20	–
B1	–	–	do not activate the amylin receptor
